For this data set, the target named is ZmMYB127 (Zea mays (inbred B73), UniProt A0A804N6V3 1-263). In words: EMSA; EMSA with LightShift Chemiluminescent EMSA kit protocol, 25 °C, 30 min, native PAGE; buffer, salt and pH not stated. As to conditions: protein: recombinant; tags: GST (N-terminal, pGEX-6T); label: biotin (end); blunt. A general note: Mobility shift assays separate free from complexed probe on a gel.
ZmMYB127, sequence (A0A804N6V3 entry or part of it): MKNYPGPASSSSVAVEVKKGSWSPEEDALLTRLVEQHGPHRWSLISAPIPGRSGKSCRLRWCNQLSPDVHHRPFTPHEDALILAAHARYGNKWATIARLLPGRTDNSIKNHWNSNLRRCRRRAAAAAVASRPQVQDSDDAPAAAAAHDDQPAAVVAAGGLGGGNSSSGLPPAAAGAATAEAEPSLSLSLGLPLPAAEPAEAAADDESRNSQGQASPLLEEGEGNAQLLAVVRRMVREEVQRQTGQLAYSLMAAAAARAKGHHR

B1: Ae1 promoter WT probe (dsDNA)
DNA 1: GAGAATGAAAGCGAACTGTTGCTCACGGACTCTAAG
DNA 2: CTTAGAGTCCGTGAGCAACAGTTCGCTTTCATTCTC
For B1, the binding result was “binds”.

B2: z1D2 promoter WT probe (dsDNA)
DNA 1: GTTGAAATTGATTGATATCCACAAATTTTGTTAA
DNA 2: TTAACAAAATTTGTGGATATCAATCAATTTCAAC
Consider B2, for which the binding result is given as “binds”.

B3: z1C1 promoter WT probe (dsDNA)
DNA 1: TCTACTAAGCTTGTTCAACCACGAGAAGAATATTAG
DNA 2: CTAATATTCTTCTCGTGGTTGAACAAGCTTAGTAGA
With B3, the binding result is “binds”.

B4: Bt1 promoter WT probe (dsDNA)
DNA 1: CACGCGCCGCCATTTCTGTTGCGAATGAGTCCATGG
DNA 2: CCATGGACTCATTCGCAACAGAAATGGCGGCGCGTG
B4: the binding result was “binds”.
